Results on one molecule are retold here after publication PMC3229553.

The assay deals with Orb (Drosophila (endogenous in ovaries)). Kind of assay: co-IP; wild type ovary extract precipitated with Orb antibody coupled to protein A/G beads, room temperature 2 hours; Co-IP buffer 20 mM Hepes pH 7.5, 150 mM NaCl, 2.5 mM MgCl2, 250 mM sucrose, 0.05% NP40, 0.5% Triton-X, with RNase A; Western blot for Cup; HA antibody as negative control. A general note: A western blot detects proteins with antibodies after separation by electrophoresis.

B1: Cup (natural protein)
chain: MQMAEAEQENGAGALKIATNAGATDRPAHQQLPLPVEDQQDEVLTPAEKGKFEYPPPPPPPTPVQAPLATKATALNASQEHDDDEANSEKWEDPCAPPPPPPLPTSAFLATGLGYLKLPAFKLKDALEKAITKLEANKRTLKASPESSRSIKNKNVVALEMLPRRSNPETIGDGSMLASTSTAVMLQTKKPAVIVEMERRCKIINLLAKQNQILESISGEAIPMHGPSKHLHEDEGLTLQVLSARASTPYTQPSSMLSCTAVSCDLEHDSPRKQVASKEAVPEQQSSQVQQKRPPSTGIHKPGSLRAPKAVRPTTAPVVSSKPVKSYTRSRLMDIRNGMFNALMHRSKESFVMPRIATCDDIELEGRLRRMNIWRTSDGTRFRTRSTTANLNMNNNNNNECMPAFFKNKNKPNLISDESIIQSQPPQPQTEFQDPAIVNQRRIGSGRLNHSKWGYNDEDYHSYHNGKSQHMEEVNSKNSKNMTVLQFFDNGEISSQPQRRPNTPVMGMSINRSENDTLHSNESSEDLSRANENYVKRVMSGFLVVSKPKSRDVEDRHHRRYRNQNEEPEWFSCGPTSRLDTIELCGFDEDEEKMLKEGNKNHGLGETERETSKQKMDHKYKWTHAEPMGRSKYMPKHDTNNNHNVENMNNVMATEHQQQKEEKRPGSGRSFQFDKFNQSQQNYESSSYVNHQQPPQTQPQQMQQQSNTNTNNSKFMSFFANEGNSSSSSLNEFFKQAINQGHGNNPEQPKSLGHIGQMPSVDQLEAKWRRNSLNNVGETANKQTDNFQKLIGSLSSAKPQSQAVGYDAISNFIMQQQQYQQQQQKQHLIIQQQQQHTAFLASLQLKAILGRADTQLLLLRLTKGEISKHGLLVQLANPRLTDMDREAITAVLQFTNTQQQQQQHKQQLDMLSSTVIASQLQNLHNLAIVQQTLAARQQPQHNPQTQAPHQLSQEDLQAHANVIMRNAVMKRKIEEQTSKLINGGAKHQAQQQYLNRGQQRQARPDANSNALLHALISGGGNNHASGYPMNGQPQKHHSNLRFGDNQNFQSFESNQPHFATQYKQQYQQSQQQHPHQQPQQLNSLHQNNAGAVNSFNKAQMQAQSAISMLPNSGDEFH
Consider B1, for which the percent of Cup pulled down was determined as 10%.
